Data on 1 molecule can be found in patent US20100316634A1 (published 2010).

In assay [1] the target is T1, recombinant human interleukin 5 (IL-5) (human, UniProt P05113 20-134, 125I label (Bolton-Hunter reagent) in the receptor binding inhibition and colony lift assays).
T1 construct: also called human IL-5; hIL-5
Kind of assay: receptor binding inhibition, 125I-IL-5 on Drosophila membranes with the IL-5R alpha chain. On the procedure:
Membrane extracts of Drosophila S2 cells expressing the […] of the human IL-5 Receptor (IL-5R) were used to measure the effect of antibody on IL-5 binding to receptor. To prepare the membranes, 10⁹ cells were pelleted at 1000×g at 4° C. for 10 min. The cell pellet was frozen in a dry ice/ethanol bath for 15 min. The pellet was thawed, resuspended in 10 ml PBS at 4° C. and pelleted at 1000×g for 10 min. The cell pellet was washed 2× in PBS and resuspended in 13.5 ml Hypotonic buffer (10 mM Tris pH 7.5, 3 mM MgCl₂, 1 mM dithiothreitol, 1 mM phenylmethylsulfonyl fluoride, 1 uM leupeptin, 1 uM pepstatin A) and incubated on ice for 5 min. The cell suspension was homogenized in a 15 ml Dounce homogenizer and brought to a final concentration of 0.25 M sucrose with a solution of 2.5 M sucrose. Cell debris was removed by a 15 min centrifugation at 1000×g. Cell membranes were pelleted at 100,000×g at 4° C. for 90 min and resuspended in 50 ml of 10 mM Tris pH 7.5, 3 mM MgCl₂, 250 mM sucrose, and stored at −70° C.
Assays with Drosophila membranes containing receptor were performed in MultiscreenGV plates (Millipore Corp., Bedford, Mass.) using Drosophila tissue culture medium M3 (Lindquist et al., Drosophila Inf. Serv., 58: 163 (1982)) containing 25 mM HEPES buffer pH 7.2 and 0.1% BSA (Binding Buffer). Wells were pre-blocked with 0.1 ml binding buffer. […] Filters were dried and counted.

Assay [2] has as its target T1, recombinant human interleukin 5 (IL-5). As to the kind of experiment: optical biosensor.

B1: recombinant Fab of mAb 2B6 with C-terminal hexa-His on the heavy chain (Fab, V domains shown)
VH: QVQLKESGPGLVAPSQSLSITCTVSGFSLTSYSVHWVRQPPGKGLEWLGVIWASGGTDYNSALMSRLSISKDNSKSQVFLKLNSLQTDDTAMYYCARDPPSSLLRLDYWGQGTTLTVSS
VL: DIVMTQSPSSLSVSAGEKVTMSCKSSQSLLNSGNQKNYLAWYQQKPGQPPKLLIYGASTRESGVPDRFTGSGSGTDFTLSISSVQAEDLAVYYCQNVHSFPFTFGSGTELEIK
notes: Expressed in E. coli from pMKFabGene3H after removal of gene III; N-terminal residues may be set by the PCR primers; also called Fab fragment from 2B6; 2B6 Fab; not shown: murine gamma 1 constant part of the Fd (CH1 to hinge); murine kappa constant region
As usually defined, the IC50 is the concentration needed to halve the response being measured. What is called Kd is the free concentration of one partner at which half of the binding sites on the other are occupied at equilibrium, for simple one-to-one binding. In the case of B1, in assay [1], the IC50 was about 7.5 µg/mL. In assay [2], the Kd is about 0.09 nM.
